Results: publication PMC11194072, “Cdc13 exhibits dynamic DNA strand exchange in the presence of telomeric DNA”

Tests used:
[1] = target: T1, RPA heterotrimer (Rfa1-3) (Saccharomyces cerevisiae, UniProt P22336;P26754;P26755 1-621;1-273;1-122); test: EMSA; 2 nM probe; 25 mM HEPES pH 8.0, 5% glycerol, 50 mM NaOAc, 150 mM NaCl, 7.5 mM MgCl2, 0.01% Tween 20; EMSA/DDE at 30°C; BLI without glycerol at ~23°C; conditions: protein: recombinant, tags: untagged, copies: 1;1;1, single strand
Cdc13 OB1 = target: T2, Cdc13 OB1 (Saccharomyces cerevisiae, UniProt P32797 1-230); test: EMSA; 7.8-1000 nM OB1; 25 mM HEPES pH 8.0, 5% glycerol, 50 mM NaOAc, 150 mM NaCl, 7.5 mM MgCl2, 0.01% Tween 20; EMSA/DDE at 30°C; BLI without glycerol at ~23°C; conditions: protein: recombinant; tags: N-terminal His6-SUMO, C-terminal 3xFLAG; chain copies: 2; label: 5' IRDye700 or IRDye800; single strand
T2 sequence: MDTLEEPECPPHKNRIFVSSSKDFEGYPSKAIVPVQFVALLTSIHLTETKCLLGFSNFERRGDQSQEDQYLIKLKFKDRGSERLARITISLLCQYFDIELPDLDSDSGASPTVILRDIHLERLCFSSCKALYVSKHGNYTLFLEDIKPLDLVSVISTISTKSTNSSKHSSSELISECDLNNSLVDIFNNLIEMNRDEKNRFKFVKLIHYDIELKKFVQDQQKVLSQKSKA

Cdc13 full-length (Sf9) [2] = target: T3, Cdc13 full-length (Sf9) (Saccharomyces cerevisiae, UniProt P32797 1-924); test: EMSA; 2 nM probe; near probe concentration, not a reliable Kd; 25 mM HEPES pH 8.0, 5% glycerol, 50 mM NaOAc, 150 mM NaCl, 7.5 mM MgCl2, 0.01% Tween 20; EMSA/DDE at 30°C; BLI without glycerol at ~23°C; conditions: protein: recombinant; tags: N-terminal SUMO-His6 tag, C-terminal FLAG tag; chain copies: 2; label: 5' IRDye700 or IRDye800; single strand
T3 sequence: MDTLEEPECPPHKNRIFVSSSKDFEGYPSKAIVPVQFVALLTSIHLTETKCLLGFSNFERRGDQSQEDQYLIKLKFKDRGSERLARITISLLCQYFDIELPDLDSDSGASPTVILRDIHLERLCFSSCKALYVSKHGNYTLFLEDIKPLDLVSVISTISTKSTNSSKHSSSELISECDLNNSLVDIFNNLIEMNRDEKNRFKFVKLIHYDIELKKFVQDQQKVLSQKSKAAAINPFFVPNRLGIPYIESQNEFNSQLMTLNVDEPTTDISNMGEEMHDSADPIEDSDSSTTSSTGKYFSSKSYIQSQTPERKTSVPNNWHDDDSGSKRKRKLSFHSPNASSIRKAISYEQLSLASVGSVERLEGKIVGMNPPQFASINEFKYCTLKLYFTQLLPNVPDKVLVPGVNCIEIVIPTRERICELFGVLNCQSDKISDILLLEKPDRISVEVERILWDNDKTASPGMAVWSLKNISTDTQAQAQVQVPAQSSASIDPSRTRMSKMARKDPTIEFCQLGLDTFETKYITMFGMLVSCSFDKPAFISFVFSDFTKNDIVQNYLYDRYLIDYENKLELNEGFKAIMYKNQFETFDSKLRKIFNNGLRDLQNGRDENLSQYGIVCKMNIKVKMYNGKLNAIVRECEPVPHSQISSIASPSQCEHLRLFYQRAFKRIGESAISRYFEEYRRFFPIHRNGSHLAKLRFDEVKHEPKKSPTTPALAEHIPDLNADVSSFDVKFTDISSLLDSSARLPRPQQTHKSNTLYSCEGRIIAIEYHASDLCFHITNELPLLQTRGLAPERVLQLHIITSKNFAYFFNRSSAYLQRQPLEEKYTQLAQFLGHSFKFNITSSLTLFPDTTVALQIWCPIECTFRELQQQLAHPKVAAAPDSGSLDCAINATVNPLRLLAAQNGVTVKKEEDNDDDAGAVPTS

Cdc13 full-length (Sf9) [3] = target: T3, Cdc13 full-length (Sf9); test: EMSA; 2 nM probe; 25 mM HEPES pH 8.0, 5% glycerol, 50 mM NaOAc, 150 mM NaCl, 7.5 mM MgCl2, 0.01% Tween 20; EMSA/DDE at 30°C; BLI without glycerol at ~23°C; conditions: protein: recombinant; tags: N-terminal SUMO-His6 tag, C-terminal FLAG tag; chain copies: 2; label: none, or 5' IRDye700/800; single strand
[4] = target: T1, RPA heterotrimer (Rfa1-3); test: competition; EC50; prebound labelled Poly(dT)30; text also gives 15 nM; 25 mM HEPES pH 8.0, 5% glycerol, 50 mM NaOAc, 150 mM NaCl, 7.5 mM MgCl2, 0.01% Tween 20; EMSA/DDE at 30°C; BLI without glycerol at ~23°C; conditions: protein: recombinant; tags: untagged; copies: 1;1;1; label: none, or 5' IRDye700/800; single strand
Cdc13 full-length (Sf9) [5] = target: T3, Cdc13 full-length (Sf9); test: competition; EC50; prebound IR700-Tel30G 2 nM; 25 mM HEPES pH 8.0, 5% glycerol, 50 mM NaOAc, 150 mM NaCl, 7.5 mM MgCl2, 0.01% Tween 20; EMSA/DDE at 30°C; BLI without glycerol at ~23°C; conditions: protein: recombinant; tags: N-terminal SUMO-His6 tag, C-terminal FLAG tag; chain copies: 2; single strand
[6] = target: T1, RPA heterotrimer (Rfa1-3); test: competition; EC50; prebound labelled Tel30G; 25 mM HEPES pH 8.0, 5% glycerol, 50 mM NaOAc, 150 mM NaCl, 7.5 mM MgCl2, 0.01% Tween 20; EMSA/DDE at 30°C; BLI without glycerol at ~23°C; conditions: protein: recombinant; tags: untagged; copies: 1;1;1; single strand
[7] = target: T1, RPA heterotrimer (Rfa1-3); test: competition; EC50; prebound labelled Poly(dT)30; 25 mM HEPES pH 8.0, 5% glycerol, 50 mM NaOAc, 150 mM NaCl, 7.5 mM MgCl2, 0.01% Tween 20; EMSA/DDE at 30°C; BLI without glycerol at ~23°C; conditions: protein: recombinant; tags: untagged; copies: 1;1;1; single strand
Cdc13 OB3 (DBD) = target: T4, Cdc13 OB3 (DBD) (Saccharomyces cerevisiae, UniProt P32797 497-694); test: EMSA; 7.5 nM OB3, 2 nM IR700-Tel11G; complex stable to 0.4-50 nM unlabelled Tel11G; 25 mM HEPES pH 8.0, 5% glycerol, 50 mM NaOAc, 150 mM NaCl, 7.5 mM MgCl2, 0.01% Tween 20; EMSA/DDE at 30°C; BLI without glycerol at ~23°C; conditions: protein: recombinant; tags: N-terminal His6; label: none, or 5' IRDye700; single strand
T4 sequence: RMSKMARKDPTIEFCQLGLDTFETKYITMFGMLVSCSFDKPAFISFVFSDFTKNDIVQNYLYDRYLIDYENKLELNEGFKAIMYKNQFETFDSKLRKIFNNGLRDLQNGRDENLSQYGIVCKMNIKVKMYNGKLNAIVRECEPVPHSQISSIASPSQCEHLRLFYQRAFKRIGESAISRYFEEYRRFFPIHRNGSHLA

[8] = target: T5, Cdc13 full-length (E. coli) (Saccharomyces cerevisiae, UniProt P32797 1-924); test: competition; prebound IR700-Tel11G, unlabelled Tel11G competes; EC50 only in figure; 25 mM HEPES pH 8.0, 5% glycerol, 50 mM NaOAc, 150 mM NaCl, 7.5 mM MgCl2, 0.01% Tween 20; EMSA/DDE at 30°C; BLI without glycerol at ~23°C; conditions: protein: recombinant; tags: N-terminal His6-SUMO, C-terminal 3xFLAG; chain copies: 2; label: none, or 5' IRDye700; single strand
T5 sequence: T3 sequence

Cdc13 full-length (Sf9) [9] = target: T3, Cdc13 full-length (Sf9); test: as above; conditions: protein: recombinant; tags: N-terminal SUMO-His6 tag, C-terminal FLAG tag; chain copies: 2; label: none, or 5' IRDye700; single strand
[10] = target: T1, RPA heterotrimer (Rfa1-3); test: EMSA; 2 nM fork; 25 mM HEPES pH 8.0, 5% glycerol, 50 mM NaOAc, 150 mM NaCl, 7.5 mM MgCl2, 0.01% Tween 20; EMSA/DDE at 30°C; BLI without glycerol at ~23°C; conditions: protein: recombinant; tags: untagged; copies: 1;1;1; fork 1:2, 20 bp duplex, two 25-nt ssDNA arms
Cdc13 full-length (Sf9) [11] = target: T3, Cdc13 full-length (Sf9); test: as above; conditions: protein: recombinant; tags: N-terminal SUMO-His6 tag, C-terminal FLAG tag; chain copies: 2; fork 1:2, 20 bp duplex, two 25-nt ssDNA arms
Cdc13 full-length (Sf9) [12] = target: T3, Cdc13 full-length (Sf9); test: EMSA; IR700-Tel50G prebound; 25 mM HEPES pH 8.0, 5% glycerol, 50 mM NaOAc, 150 mM NaCl, 7.5 mM MgCl2, 0.01% Tween 20; EMSA/DDE at 30°C; BLI without glycerol at ~23°C; conditions: protein: recombinant; tags: N-terminal SUMO-His6 tag, C-terminal FLAG tag; chain copies: 2; label: 5' IRDye700; single strand

T1 sequence (P22336 whole entry, chain 1 of 3): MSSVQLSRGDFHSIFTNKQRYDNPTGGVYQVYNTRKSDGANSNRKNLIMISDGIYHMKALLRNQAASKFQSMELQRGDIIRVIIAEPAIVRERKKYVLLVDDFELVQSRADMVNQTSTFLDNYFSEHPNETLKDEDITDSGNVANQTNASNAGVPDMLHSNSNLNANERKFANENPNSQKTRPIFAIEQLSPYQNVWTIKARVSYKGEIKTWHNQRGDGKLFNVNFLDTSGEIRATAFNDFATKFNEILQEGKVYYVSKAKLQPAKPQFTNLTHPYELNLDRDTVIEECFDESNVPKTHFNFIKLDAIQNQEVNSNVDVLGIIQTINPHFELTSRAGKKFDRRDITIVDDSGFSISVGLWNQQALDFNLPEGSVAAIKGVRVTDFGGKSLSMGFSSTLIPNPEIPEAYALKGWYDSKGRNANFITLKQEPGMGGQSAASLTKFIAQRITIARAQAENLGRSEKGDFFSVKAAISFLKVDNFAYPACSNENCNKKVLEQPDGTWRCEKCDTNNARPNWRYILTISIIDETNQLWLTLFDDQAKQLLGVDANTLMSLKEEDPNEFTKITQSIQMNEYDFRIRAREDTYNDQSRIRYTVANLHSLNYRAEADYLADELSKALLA
T1 sequence (P26754 whole entry, chain 2 of 3): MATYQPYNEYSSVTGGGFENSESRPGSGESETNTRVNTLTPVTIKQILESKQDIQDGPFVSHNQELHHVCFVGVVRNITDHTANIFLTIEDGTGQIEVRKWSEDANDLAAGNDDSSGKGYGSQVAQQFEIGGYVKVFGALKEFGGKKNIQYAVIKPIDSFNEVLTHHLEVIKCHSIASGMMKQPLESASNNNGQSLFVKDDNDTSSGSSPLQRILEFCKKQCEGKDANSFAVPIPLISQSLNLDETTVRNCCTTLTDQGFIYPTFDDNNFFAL
T1 sequence (P26755 whole entry, chain 3 of 3): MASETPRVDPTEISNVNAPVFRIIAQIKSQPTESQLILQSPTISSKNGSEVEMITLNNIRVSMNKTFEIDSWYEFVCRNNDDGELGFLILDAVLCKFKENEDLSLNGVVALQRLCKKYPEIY

Binder: CGCCATGCTGATCCGTGTGGTGTGTGTGGG (ssDNA) [Tel30G labelled (MB1930 IR700 / MB1981 IR800)]
- apparent K (half saturation) ([1]; label: 5' IRDye700 or IRDye800): 2.4 ± 0.5 nM
- apparent K (half saturation) (Cdc13 OB1): 830 nM
- apparent K (half saturation) (Cdc13 full-length (Sf9) [2]): 3.7 ± 0.3 nM

Binder: TTTTTTTTTTTTTTTTTTTTTTTTTTTTTT (ssDNA) [Poly(dT)30 (MB464 / MB1755 IR700 / MB1982 IR800)]
- apparent K (half saturation) ([1]; label: none, or 5' IRDye700/800): 7 ± 0.5 nM
- apparent K (half saturation) (Cdc13 full-length (Sf9) [3]): 26 ± 3 nM
- IC50 [4]: 15.1 nM

Binder: GTGTGGGTGTGGTGTGGGTGTGGTGTGGGTGTGTGGGTGTGGTGTGGGTG (ssDNA) [Tel50G unlabelled (MB1117)]
- IC50 (Cdc13 full-length (Sf9) [5]): 0.96 nM

Binder: GTGTGGGTGTGGTGTGGGTGTGGTGTGGGT (ssDNA) [Tel30G unlabelled (MB915)]
- IC50 [6]: 5.44 nM
- IC50 (Cdc13 full-length (Sf9) [5]): 0.89 nM
- IC50 [7]: 5.1 nM

Binder: GTGTGGGTGTG (ssDNA) [Tel11G (MB1983 / MB2018 IR700)]
- binding result (Cdc13 OB3 (DBD)): binds
- binding result [8]: binds
- binding result (Cdc13 full-length (Sf9) [9]): binds

B1: Tel25G fork (MB1169/MB1170) (mixed)
DNA 1: GGTGTGGTGTGGGTGTGGTGTGGGTGTGTCACTCACATAGCGTTC
DNA 2: GAACGCTATGTGAGTGACACTGGGTGTGGTGTGGGTGTGGTGTGG
- apparent K (half saturation) [10]: 2.5 ± 0.6 nM
- apparent K (half saturation) (Cdc13 full-length (Sf9) [11]): 3.3 ± 0.5 nM

Binder: GTGTGGGTGTGGTGTGGGTGTGGTGTGGGTGTGTGGTGTGGTGTGTGTG (ssDNA) [IR700-Tel50G (MB1931)]
- binding result (Cdc13 full-length (Sf9) [12]): binds
